Target: SARS-CoV-2 Spike protein on live virus (SARS-CoV-2, UniProt P0DTC2)
Experiment: cell-based or functional assay

B1: ESBP2 (peptide)
peptide: ESLSLSLSLSLSLEGSALEEGQLKTFLDKFMHELEDLLYQLAL
  IC50 of reduction in live-virus infectivity: < 10 nM
